The record followed here is publication PMC4967814 (Cell, 2016).

The target of assay [1] is T1, human IL17F (Homo sapiens, UniProt Q96PD4).
T1 construct: interleukin-17F, human
Put plainly: SPR; Biacore T200; who was immobilised is not told for these mAbs (values of Table S3). The conditions noted are these: both partners purified. A general note: SPR reads the build-up and loss of mass on a sensor chip optically.

The target in a further assay is T2, human IL22 (Homo sapiens, UniProt Q9GZX6).
T2 construct: interleukin-22, human; also called interleukin-22
T2 sequence (Q9GZX6 34-179): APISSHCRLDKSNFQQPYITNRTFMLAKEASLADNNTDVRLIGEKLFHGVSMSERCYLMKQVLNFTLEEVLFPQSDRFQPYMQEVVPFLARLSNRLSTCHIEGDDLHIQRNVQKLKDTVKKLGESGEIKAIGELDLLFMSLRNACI
The description is as above. The conditions noted are these: both partners purified.

Assay [2] has as its target T1, human IL17F. Put plainly: ELISA; IL17F immobilized; mAbs and germline counterparts added. For orientation: In an ELISA, binding on a coated surface is turned into a signal by an enzyme label.
A further assay concerns the target T3, recombinant human IFNα14 (Homo sapiens, UniProt P01570).
T3 construct: interferon alpha-14, human; source: recombinant
Put plainly: SPR; antibodies 19D11 and 26B9 immobilized on Biacore chips; different concentrations of recombinant human IFNs passed over; Biacore T200. The conditions noted are these: both partners purified.

For another assay, the target named is T4, recombinant human IFNω (Homo sapiens, UniProt P05000).
T4 construct: interferon omega-1, human; source: recombinant
T4 sequence (P05000 22-195): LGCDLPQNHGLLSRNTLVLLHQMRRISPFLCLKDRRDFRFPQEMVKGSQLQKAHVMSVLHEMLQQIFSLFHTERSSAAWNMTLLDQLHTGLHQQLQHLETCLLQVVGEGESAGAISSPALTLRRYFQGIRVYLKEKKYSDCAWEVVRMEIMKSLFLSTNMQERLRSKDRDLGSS
The assay is described as above. To be noted: both partners purified.

The next assay deals with T5, recombinant human IFNα4 (Homo sapiens, UniProt P05014).
T5 construct: interferon alpha-4, human; source: recombinant
T5 sequence (P05014 24-189): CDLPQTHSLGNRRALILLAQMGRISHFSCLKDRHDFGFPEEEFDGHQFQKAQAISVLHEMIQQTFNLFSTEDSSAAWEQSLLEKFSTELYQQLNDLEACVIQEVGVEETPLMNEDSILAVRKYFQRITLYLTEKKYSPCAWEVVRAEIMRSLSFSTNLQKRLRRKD
The assay is described as above. The conditions noted are these: both partners purified.

The Kd is the free concentration of one partner at which half of the binding sites on the other are occupied at equilibrium, for simple one-to-one binding.

T1 sequence (Q96PD4 31-163): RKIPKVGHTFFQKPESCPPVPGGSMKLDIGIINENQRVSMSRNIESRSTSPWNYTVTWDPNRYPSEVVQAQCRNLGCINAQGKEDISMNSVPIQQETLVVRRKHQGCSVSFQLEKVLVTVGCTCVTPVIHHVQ
T3 sequence (P01570 24-189): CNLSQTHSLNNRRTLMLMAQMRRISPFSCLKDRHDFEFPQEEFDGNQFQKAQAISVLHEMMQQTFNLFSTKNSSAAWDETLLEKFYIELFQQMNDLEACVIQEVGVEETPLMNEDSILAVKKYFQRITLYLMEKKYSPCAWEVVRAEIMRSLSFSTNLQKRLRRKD

B1: 17E3, patient-derived IgGκ mAb specific for IL17F (antibody, V domains shown)
VH: QVQLVQSGAEVAKPGASVRLSCKASGFSFIKYYMHWVRQAPGQGLEWMGVIEPTGGGTSSAQKFRDRVTLSRDTSTATVHLEVSRLTLEDTGIYFCVRDSIYCKHGTCHRTVIDAFDIWGQGTAVTVSS
VL: DIQMTQSPSSLSASVGDRVTITCRSSQDIKNDLAWYQQKPGKAPERLIYAASNLQSGVPSRFSGSGSGTEFSLTISGLQPEDFATYYCLQHNSYPLLTFGGGTKVEIK
notes: kappa light chain; IgG1 kappa by the cloning vectors; source: recombinant
Take B1: the Kd in the assay with human IL17F [1] is less than 10 pM.

B2: fezakinumab, CHO cell-expressed form (in-house-expressed anti-IL22 mAb) (antibody, V domains shown)
VH: QVQLVQSGAEVKKPGASVKVSCKASGYTFTNYYMHWVRQAPGQGLEWVGWINPYTGSAFYAQKFRGRVTMTRDTSISTAYMELSRLRSDDTAVYYCAREPEKFDSDDSDVWGRGTLVTVSS
VL: QAVLTQPPSVSGAPGQRVTISCTGSSSNIGAGYGVHWYQQLPGTAPKLLIYGDSNRPSGVPDRFSGSKSGTSASLAITGLQAEDEADYYCQSYDNSLSGYVFGGGTQLTVL
notes: expressed as the patient mAbs (vectors providing IgG1 and light-chain constant regions); source: CHO cell-expressed; V regions ordered as CHO-codon-optimized synthetic constructs (GenScript)
With B2, in the assay with human IL22, the Kd came out at 54 pM.

B3: 30G1, patient-derived IgGκ antibody specific for IL22 (antibody, V domains shown)
VH: EVQLLESGGGLVQPGGSLRLSCAASGFTFSTYAMSWVRQAPGKGLEWVSTITSSGGATYHADSVKGRLTISRDNSKNTLYLEMNSLRVEDTAVYYCAKDWGRTVYAVIKDLDIWGQGTLVTVSS
VL: EIVMTQSPAILSVSPGERATLSCRASQSVSNYLAWFQQKPGQAPRLLIYDTSKRATGTPARFSGSGSGTDFTLTISSLEPEDFAVYFCQQRSDWPQYTFGQGTKLEIK
notes: as for B1
In the assay with human IL22, B3 yielded a dissociation constant Kd of 37 pM.

B4: 9A2, patient-derived IL17F-reactive mAb (antibody, V domains shown)
VH: EVQLEESGGGLVQPGGSLRLSCAASGFPFSNYEMNWVRQAPGKGLEWISYISVSGGPAHYADSVKGRFTISRDDATKSLFLQMNRLRADDTAVYYCVRREYVTGRNYNYYPYMDVWGTGTTVTVSP
VL: DIQMTQSPSSLSASVGDRVTITCRASQTISDYLNWYQHKPGEAPKLLIYSASTLQRGVPSRFSGSGSGTDFVFTISSLQSDDFATYYCQQTSSTALTFGGGTKVEVK
notes: source: recombinant
Take B4: the binding result with human IL17F [2] is recorded as “binds”.

B5: 26B9, APS1/APECED patient-derived anti-IFN monoclonal antibody (antibody, V domains shown)
VH: QILLQESGPGLVKPTETLSLTCSVSGDSISDSSHYWAWIRQPPGKGPEWIGSVYFSSMTHYNPSLKSRVSISVDKPKNQFSLKVTSVTVADTATYYCARQALARVGAMNWFDPWGQGSLVTVSS
VL: DIIMTQSPDSLPVSLGEGVTINCKSSQSVFFTSSNKSCLAWYQQKPGKSPKLLIYWASTRQSGVPDRFRGSGSGTDFSLTITSLQAEDVAVYFCQQCQTSPPTFGGGTRLEIK
notes: V regions cloned into vectors providing IgG1 and Ig-kappa constant regions; source: recombinant, harvested from transfected CHO cells (SPR); recombinant antibodies were also produced in HEK293T cells
Turning to B5, the Kd with recombinant human IFNα14 is 0.0328 pM. Also, the binding result with recombinant human IFNω and in the assay with recombinant human IFNα4 was “binds” each time.

B6: 35G11, patient-derived IgGλ antibody specific for IL22 (antibody, V domains shown)
VH: QVQLVQSGSELRRPGASVNISCKASGYGFNTYAMNWVRQAPGQGPEWMGWINTDTGDPTYAQGFTGRFAFFLDTSASTAFLQITRLTGEDTAVYFCARTRNNWNGVYYHYSGLDVWGQGTTVTVSS
VL: QSVLTQPPSASGTPGQTVTISCSGSSPNLGDNYVYWYHQVPGTAPKLLIFRNTQRPSGVTDRFSGSKYGTSASLAISDLRSDDEGDFYCASWDDRLSRLVFGGGTKLTVL
notes: lambda light chain; IgG1 lambda by the cloning vectors; source: recombinant
As for B6, in the assay with human IL22, the equilibrium dissociation constant (Kd) is 39 pM.

B7: 19D11, APS1/APECED patient-derived anti-IFN monoclonal antibody (antibody, V domains shown)
VH: QVQLVQSGAEVKRPGSSVRVSCRASGDTFSSYPISWVRQAPGQGLEWMGRILPALGVTNYAQNFRGRITITADKSPLTAYLELSSLRFEDTAVYYCASPSADIIPSILGTTLFAFWGQGSLVTVSS
VL: EIVLTQSPGTLSLSPGEGATLSCRASQNVSRHYLTWYQQKPGQSPRLLIYGGSSRATGVPDRFSGGGSGTDFTLTISRLEPEDFAVFYCQSYHSPPPVYTFGQGTKVEIK
notes: as for B5
As to B7, in the assay with recombinant human IFNω, the binding result is “no binding”.
